Measured values reported in patent US7648964B2, “Use of lacritin in promoting ocular cell survival” (University of Virginia Patent Foundation, priority 2004, dated 2010).

T1: syndecan-1 (Homo sapiens, UniProt P18827)
T1 construct: expressed in transfected cells; host or cells: HEK293 (syndecan-1); E. coli ER2566 (lacritin-intein)
T1 sequence (P18827 23-310): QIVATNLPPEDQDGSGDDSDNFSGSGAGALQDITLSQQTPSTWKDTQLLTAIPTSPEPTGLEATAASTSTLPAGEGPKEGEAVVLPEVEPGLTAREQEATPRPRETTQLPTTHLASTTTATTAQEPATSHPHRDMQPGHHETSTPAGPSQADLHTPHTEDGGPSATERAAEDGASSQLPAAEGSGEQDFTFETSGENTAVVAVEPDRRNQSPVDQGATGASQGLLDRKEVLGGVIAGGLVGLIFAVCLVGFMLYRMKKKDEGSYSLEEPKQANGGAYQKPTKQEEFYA


Tests used:
syndecan-1 = biological target: T1, syndecan-1; assay: Competitive binding assay of lacritin-syndecan-1 binding; conditions: competitive binding assays
Excerpt: Biotinylated cell surface proteins were applied to lacritin affinity columns. After washing extensively in physiological salt-containing buffer, bound protein was eluted with 1 M NaCl, and identified with avidin-peroxidase using an ECL blot method. In controls, columns lacking lacritin were used. […] 293T cells stably transfected with human syndecan-2 or −4 were kindly provided by Dr. Atsushi Utani (Chiba University). A series of lacritin C-terminal and N-terminal deletion mutants were generated. Pull down binding assays involved incubation of intein-tagged lacritin or intein deletion mutants with lysates of untransfected or transfected cells followed by precipitation and SDS PAGE. Immunolocalization of syndecan-1 in human lacrimal glands was performed using anti-human syndecan-1 antibody (CD138).
The first of approximately four bands repeatedly eluted from lacritin affinity column was determined by sequencing to be syndecan-1. In pull-down assays, lacritin bound mammalian syndecan-1, but not syndecan-2 or 4. The binding appeared to be independent of heparan sulfate side chains, in keeping with lack of lacritin binding to heparin (previously known). Deletion of lacritin's C-terminal 25 but not N-terminal 5, 10, or 24 amino acids eliminated binding. […] Syndecan-1 was detected in ‘near apical’ and basolateral plasma membranes in human lacrimal gland.

[1] = test system: embryonic kidney (HEK) cells; assay: 3H-thymidine uptake mitogenesis assay; assay type: cell-based, human
Method: (§1) For phosphotyrosine blotting and mitogenesis assays, cells in serum-containing media were seeded overnight in 24-well plates at a density of 0.5×10^5 cells/mm^2 corresponding to 20-30% confluency after cell attachment, incubated in serum-free media without supplements for 24 h (phosphotyrosine) or washed with serum-free media without supplements three times (mitogenesis) and incubated with lacritin (1-1000 nM), or positive controls EGF (1.6 nM) and 10% fetal bovine serum, or negative controls bovine serum albumin or no additive in serum-free media without supplements for the indicated times (phosphotyrosine) or 30 h (mitogenesis). For phosphotyrosine assays, cells were extracted in 1% NP40 containing sodium vanadate (2 mg/ml), DTT (5 mg/ml), protease inhibitors, 50 mM HEPES, 100 mM NaCl, and 2 mM EDTA; then separated by 10% SDS PAGE, transferred and blotted. The following antibodies (Cell Signaling Technology, Beverly Mass.) were tested: antiphosphotyrosine antibody (P-Tyr-100), anti-phospho-PKC αβII, anti-PKCα, anti-phospho-PKCδ, anti-phospho-PKC (pan), anti-p44/42 MAPK, anti-phospho-Raf, anti-phospho-SAPK/JNK, anti-phospho-p38 Map kinase, anti-phospho-Raf, anti-phospho-Akt, anti-phospho-CaMKII, anti-phospho-MARCKS, or anti-tubulin (loading control). After washing, bound antibodies were detected with peroxidase-labeled secondary antibody and ECL. With the exception of at least nine proteins in the P-Tyr-100 blot (FIG. 1), none of the effectors tested above appeared to be phospho-activated during lacritin signaling (not shown). For mitogenesis (Hussaini et al., '00), [^3H]-thymidine (2 mCi/ml) was added for the next 6 h. Incorporation was stopped with ice-cold phosphate buffered saline and followed by addition of cold and then room temperature trichloracetic acid (10%) for 10 min each, washing of cells with phosphate buffered saline, solubilization with 1 N sodium hydroxide, neutralization with 1 N hydrochloric acid, addition of scintillation fluid and then quantitation in a scintillation counter. To deplete PKCα in HSG cells, a pool of four PKCα-specific siRNAs (100 nM) were transfected via LipofectAMINE 2000 in Opti-MEMI Reduced Serum Medium (Invitrogen, Grand Island N.Y.) without serum and antibiotics according to manufacturer's instructions. Each of the four siRNAs was also individually transfected. In negative controls, cells were transfected with a pool of four lamin-specific siRNAs (Upstate LLC, Charlottesville Va.; Dharmacon Inc, Lafayette Colo.). Seventy-two hours post-transfection, mitogenesis was assessed by co-addition of 10 […] lacritin and [^3H]-thymidine (2 mCi/ml) (Amersham, Piscataway N.J.) for 24 hrs. PKCα depletion was confirmed by Western blotting.

melanoma (SK-MEL) cells = assay: 3H-thymidine uptake mitogenesis assay; assay type: cell-based, human
Method: as §1

melanoma (WM-164) cells = assay: 3H-thymidine uptake mitogenesis assay; assay type: cell-based, human
Method: as §1

[2] = test system: erythroleukemia (K-562) cells; assay: 3H-thymidine uptake mitogenesis assay; assay type: cell-based, human
Method: as §1

[3] = test system: fibrosarcoma (HT1080) cells; assay: 3H-thymidine uptake mitogenesis assay; assay type: cell-based, human
Method: as §1

cervical (HeLa) cells = assay: 3H-thymidine uptake mitogenesis assay; assay type: cell-based, human
Method: as §1

[4] = test system: non-invasive breast carcinoma (MCF7) cells; assay: 3H-thymidine uptake mitogenesis assay; assay type: cell-based, human
Method: as §1

[5] = test system: foreskin fibroblast (HS68) cells; assay: 3H-thymidine uptake mitogenesis assay; assay type: cell-based, human
Method: as §1

[6] = test system: tyrosine phosphorylation of phosphoproteins in HSG cells; assay: Phosphotyrosine blotting in HSG cells; assay type: cell-based, human; conditions: within the first minute
Method: For phosphotyrosine blotting and mitogenesis assays, cells in serum-containing media were seeded overnight in 24-well plates at a density of 0.5×10^5 cells/mm^2 corresponding to 20-30% confluency after cell attachment, incubated in serum-free media without supplements for 24 h (phosphotyrosine) or washed with serum-free media without supplements three times (mitogenesis) and incubated with lacritin (1-1000 nM), or positive controls EGF (1.6 nM) and 10% fetal bovine serum, or negative controls bovine serum albumin or no additive in serum-free media without supplements for the indicated times (phosphotyrosine) or 30 h (mitogenesis). […] After washing, bound antibodies were detected with peroxidase-labeled secondary antibody and ECL. […] Incorporation was stopped with ice-cold phosphate buffered saline and followed by addition of cold and then room temperature trichloracetic acid (10%) for 10 min each, washing of cells with phosphate buffered saline, solubilization with 1 N sodium hydroxide, neutralization with 1 N hydrochloric acid, addition of scintillation fluid and then quantitation in a scintillation counter. […] Seventy-two hours post-transfection, mitogenesis was assessed by co-addition of 10 […] lacritin and [^3H]-thymidine (2 mCi/ml) (Amersham, Piscataway N.J.) for 24 hrs. […]

| Molecule | inhibition of binding (syndecan-1) | mitogenesis [1] | mitogenesis (melanoma (SK-MEL) cells) | mitogenesis (melanoma (WM-164) cells) | mitogenesis [2] | mitogenesis [3] | mitogenesis (cervical (HeLa) cells) | mitogenesis [4] | mitogenesis [5] | tyrosine phosphorylation of at least nine phosphoproteins [6] |
| --- | --- | --- | --- | --- | --- | --- | --- | --- | --- | --- |
| N-24: deletion mutant comprising a deletion of the 24 amino terminal amino acids of lacritin (protein, homo sapiens, deletion mutant comprising a deletion of the 24 amino terminal amino acids of lacritin) DSTGADPAQEAGTSKPNEEISGPAEPASPPETTTTAQETSAAAVQGTAKVTSSRQELNPLKSIVEKSILLTEQALAKAGKGMHGGVPGGKQFIENGSEFAQKLLKKFSLLKPWA | inhibited binding |  |  |  |  |  |  |  |  |  |
| lacritin: recombinant human lacritin from E. coli; mature 119 residue fragment (SEQ ID NO:10) of native lacritin SEQ ID NO:4 (protein, listed as Homo sapiens) EDASSDSTGADPAQEAGTSKPNEEISGPAEPASPPETTTTAQETSAAAVQGTAKVTSSRQELNPLKSIVEKSILLTEQALAKAGKGMHGGVPGGKQFIENGSEFAQKLLKKFSLLKPWA | inhibited binding | mitogenic | not mitogenic | not mitogenic | not mitogenic | not mitogenic | not mitogenic | not mitogenic | not mitogenic | transient tyrosine phosphorylation |
